Tests used:
a4(Q878R)b7 (human) [1] = target: a4(Q878R)b7 (human) (UniProt P13612); experiment: FACS on transfected 293 cells, 1 microG/ml, PE anti-human IgG; control
human alpha4beta7 [2] = target: T1, human alpha4beta7 (human, UniProt P13612 34-1032; P26010 20-798); experiment: as above
a4(V824A)b7 (human) [3] = target: a4(V824A)b7 (human) (UniProt P13612); experiment: as above
a4b7(E97V) (human) [4] = target: a4b7(E97V) (human) (UniProt P13612); experiment: as above
a4b7(G629S) (human) [5] = target: a4b7(G629S) (human) (UniProt P13612); experiment: as above
a4b7(G629S) (human), sequence (P13612 34-1032, chain 1 of 2): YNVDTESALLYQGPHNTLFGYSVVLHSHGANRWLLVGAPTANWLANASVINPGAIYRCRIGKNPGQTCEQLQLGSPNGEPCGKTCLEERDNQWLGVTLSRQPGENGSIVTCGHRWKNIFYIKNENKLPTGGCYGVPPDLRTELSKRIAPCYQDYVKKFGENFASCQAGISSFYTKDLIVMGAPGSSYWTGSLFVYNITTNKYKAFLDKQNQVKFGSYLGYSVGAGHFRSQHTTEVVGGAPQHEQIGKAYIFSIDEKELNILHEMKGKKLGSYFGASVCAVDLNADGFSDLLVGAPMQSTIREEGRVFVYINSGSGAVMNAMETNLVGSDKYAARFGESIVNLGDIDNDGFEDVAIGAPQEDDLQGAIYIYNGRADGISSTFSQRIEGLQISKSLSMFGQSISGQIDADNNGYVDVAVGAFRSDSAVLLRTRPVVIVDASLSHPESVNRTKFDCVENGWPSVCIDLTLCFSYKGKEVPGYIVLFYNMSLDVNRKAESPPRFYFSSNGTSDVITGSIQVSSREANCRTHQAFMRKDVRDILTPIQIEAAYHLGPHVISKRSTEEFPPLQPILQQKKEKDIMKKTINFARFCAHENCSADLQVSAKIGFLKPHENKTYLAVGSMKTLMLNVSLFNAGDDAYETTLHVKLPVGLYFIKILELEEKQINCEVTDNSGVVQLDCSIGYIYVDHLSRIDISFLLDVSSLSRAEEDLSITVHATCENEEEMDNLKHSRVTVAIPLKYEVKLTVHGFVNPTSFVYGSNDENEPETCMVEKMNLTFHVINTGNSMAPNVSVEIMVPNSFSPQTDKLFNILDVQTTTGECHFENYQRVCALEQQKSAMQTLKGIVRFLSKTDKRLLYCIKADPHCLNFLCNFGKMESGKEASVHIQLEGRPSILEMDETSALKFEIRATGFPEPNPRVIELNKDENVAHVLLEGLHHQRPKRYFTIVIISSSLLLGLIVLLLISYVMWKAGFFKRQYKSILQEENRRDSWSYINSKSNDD
a4b7(G629S) (human), sequence (P26010 20-798 G629S, chain 2 of 2, further chain): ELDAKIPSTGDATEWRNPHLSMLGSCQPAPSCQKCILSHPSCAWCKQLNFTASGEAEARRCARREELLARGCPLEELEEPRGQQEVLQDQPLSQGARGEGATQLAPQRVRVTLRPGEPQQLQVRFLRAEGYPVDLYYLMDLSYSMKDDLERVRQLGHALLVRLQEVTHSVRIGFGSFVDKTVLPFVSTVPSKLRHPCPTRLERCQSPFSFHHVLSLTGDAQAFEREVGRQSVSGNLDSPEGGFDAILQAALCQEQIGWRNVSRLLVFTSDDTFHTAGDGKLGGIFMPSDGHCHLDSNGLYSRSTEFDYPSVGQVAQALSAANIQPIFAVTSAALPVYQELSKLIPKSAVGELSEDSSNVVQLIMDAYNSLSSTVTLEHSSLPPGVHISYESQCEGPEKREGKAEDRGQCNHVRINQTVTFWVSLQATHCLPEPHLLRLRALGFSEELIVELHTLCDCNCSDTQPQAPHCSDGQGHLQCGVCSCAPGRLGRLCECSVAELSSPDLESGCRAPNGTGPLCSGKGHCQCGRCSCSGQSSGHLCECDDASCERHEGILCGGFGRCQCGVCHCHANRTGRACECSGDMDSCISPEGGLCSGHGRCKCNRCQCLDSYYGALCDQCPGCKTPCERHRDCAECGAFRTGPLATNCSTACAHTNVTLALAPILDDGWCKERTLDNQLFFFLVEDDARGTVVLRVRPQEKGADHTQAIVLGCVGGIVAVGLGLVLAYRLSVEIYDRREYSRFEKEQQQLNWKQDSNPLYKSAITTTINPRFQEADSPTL

a4b7(R213S) (human) [6] = target: a4b7(R213S) (human) (UniProt P13612); experiment: as above
a4b7(R213S) (human), sequence (P13612 34-1032, chain 1 of 2): as the sequence (P13612 34-1032, chain 1 of 2) above
a4b7(R213S) (human), sequence (P26010 20-798 R213S, chain 2 of 2, further chain): as the sequence (P26010 20-798 G629S, chain 2 of 2, further chain) above, with R194S, S610G counted along it

human alpha4beta7 [7] = target: T1, human alpha4beta7; experiment: FACS, biotinylated antibody on human CD4+CD45RA- memory T cells
Procedure: Human peripheral blood mononuclear cells (PBMC; fresh or frozen and thawed, for example in phosphate buffered saline with 2% FBS) are washed and resuspended in HEPES buffer (30 mM HEPES+[…]) with 1% BSA, with or without 1 mM MnCl₂ (depending on the experiment; Mn²⁺ is necessary for MAdCAM-1 binding) and plated into 96 well plates (10⁶cells/well). Cells are incubated with 10 microG/ml human IgG for 30 minutes on ice to block nonspecific binding. Cells are then incubated with serial dilutions of biotinylated anti-alpha4beta7 antibodies in 96 well plates for one hour on ice, followed by addition of 1:100 dilution of streptavidin-phycoerythrin (PE; Jackson ImmunoResearch Laboratories Inc., West Grove, Pa.), 4 microL CD3-Pacific Blue, CD4-PerCP-Cy5.5 and CD45RA-fluorescein isothiocyanate (FITC) (BD Biosciences, San Jose Calif.) for a final volume of 100 microL, and incubated for another hour on ice. Cells were washed twice with HEPES buffer (with or without MnCl₂, correspondingly) and then fixed in 200 microL HEPES buffer plus 0.5% paraformaldehyde (again, with or without MnCl₂, correspondingly). The percentage of positive alpha4beta7 antibody binding CD4+CD45RA-memory T cells is determined using a fluorescence activated cell sorter (FACS), for example, a BD™ LSR II benchtop flow cytometer (BD Biosciences, San Jose Calif.).

human alpha4beta7 [8] = target: T1, human alpha4beta7; experiment: KinExA, HUT78 cells expressing human alpha4beta7, upper bound of Kd
Source text: (§1) To measure cell binding affinity of human anti-alpha4beta7antibodies, a Kinetic Exclusion Assay which measures binding events in solution phase can be used to calculate the equilibrium dissociation constant, Kd. KinExA® Technology (Sapidyne Instruments, Boise, Id.) was used, substantially as described previously by Xie et. al. J. Imm, Methods 304:1 (2005) and Rathanaswami et. al. Anal. Biochem. 373:52 (2008). Briefly, HUT78 cells expressing human alpha4beta7 were titrated 1 in 3 from […] to ˜400 cells/mL and then equilibrated with a final concentration of either 2 or 30 pM of mAb 2F12 or 18A11 and 30 or 500 pM for 17C8 for 18 hours at 4° C. The free antibody remaining in the supernatant at equilibrium was measured by KinExA® technology by passing the supernatant over PMMA beads pre-coated with goat anti-human Fc and detected with goat anti-human (H+L) Cy5 (substantially as described by Rathanaswami et al. Biochem Biophys Research Commun:1004 (2005). The equilibrium dissociation constant (Kd) is obtained using KinExA® software by “n-curve analysis” which fits all of the given curves to a single Kdvalue simultaneously (Rathanswami et al. 2005 and Xie et al., supra).; results are shown below in Table 7.

a4(Q878R)b7 (human) [9] = target: a4(Q878R)b7 (human) (UniProt P13612); experiment: FACS on transfected 293 cells, 1 microG/ml, PE anti-human IgG
a4(V824A)b7 (human) [10] = target: a4(V824A)b7 (human) (UniProt P13612); experiment: as above
a4b7(E97V) (human) [11] = target: a4b7(E97V) (human) (UniProt P13612); experiment: as above
a4b7(G629S) (human) [12] = target: a4b7(G629S) (human) (UniProt P13612); experiment: as above
a4b7(R213S) (human) [13] = target: a4b7(R213S) (human) (UniProt P13612); experiment: as above
human alpha4beta7 [14] = target: T1, human alpha4beta7; experiment: FACS competition, blocks biotinylated MAdCAM-1-Fc binding to human CD4+CD45RA- memory T cells
Procedure: PBMC (fresh or frozen as described previously) are washed and resuspended in HEPES buffer (30 mM HEPES+[…]) with 1% BSA and 1 mM MnCl. to a final concentration of 10⁷cells/ml. Cells are blocked as described previously; after blocking, cells are incubated with a serial dilution of anti-alpha4beta7 antibody (or appropriate control) in 96 well plates for 30 minutes on ice, and then with 0.3 microG/ml biotinylated MAdCAM-1-Fc protein for another one hour.
After two washes in HEPES buffer with 1 mM MnCl, cells are treated with 1:100 dilution of streptavidin-PE, 4 microL CD3-Pacific Blue, CD4-PerCP-Cy5.5 and CD45RA-FITC as described previously, in a final volume of 100 microL. After one hour incubation on ice, cells are washed twice with HEPES buffer with 1 mM MnCl and then fixed in 200 microL buffer plus 0.5% paraformaldehyde. The percentage of positive MAdCAM-1-Fc binding CD4+CD45RA-memory T cells is determined by fluorescence activated cell sorter (FACS) analysis, as described previously.

human alpha4beta7 [15] = target: T1, human alpha4beta7; experiment: FACS on transfected 293 cells, 1 microG/ml, PE anti-human IgG
Source text: Point mutant constructs representing amino acid altering SNPs (a4b7(E97V); a4b7(R213S); a4b7(G629S; a4(V824A)b7; a4(Q878R)b7) in the extracellular domains of both alpha4 and beta7 were generated. Each point mutant construct was transfected to 293 cells along with the wild-type partner expression construct. Transfected 293 cells were first stained with 1 microG/ml of human IgG or anti-alpha4beta7 antibody, washed with PBS, and the stained with phycoerytherin conjugated secondary antibody goat-anti human IgG. After washing with PBS, cells were analyzed by fluorescence activated cell sorting, for example, with a FACSCalibur™ (BD Biosciences, San Jose Calif.).

human alpha4beta7 [16] = target: T1, human alpha4beta7; experiment: cell-based or functional assay
human alpha4beta7 [17] = target: T1, human alpha4beta7; experiment: KinExA, HUT78 cells expressing human alpha4beta7, lower bound of Kd
Source text: as §1

human alpha4beta7 [18] = target: T1, human alpha4beta7; experiment: KinExA, HUT78 cells expressing human alpha4beta7, n-curve analysis
Source text: as §1

a4b7(E97V) (human), sequence (P13612 34-1032, chain 1 of 2): as the sequence (P13612 34-1032, chain 1 of 2) above
a4b7(E97V) (human), sequence (P26010 20-798 E97V, chain 2 of 2, further chain): as the sequence (P26010 20-798 G629S, chain 2 of 2, further chain) above, with E78V, S610G counted along it
T1 sequence (P13612 34-1032, chain 1 of 2): as the sequence (P13612 34-1032, chain 1 of 2) above
T1 sequence (P26010 20-798, chain 2 of 2): as the sequence (P26010 20-798 G629S, chain 2 of 2, further chain) above, with S610G counted along it
a4(Q878R)b7 (human), sequence (P13612 34-1032, chain 1 of 2): as the sequence (P13612 34-1032, chain 1 of 2) above
a4(Q878R)b7 (human), sequence (P26010 20-798, chain 2 of 2, further chain): as the sequence (P26010 20-798 G629S, chain 2 of 2, further chain) above, with S610G counted along it
a4(V824A)b7 (human), sequence (P13612 34-1032 V824A, chain 1 of 2): as the sequence (P13612 34-1032, chain 1 of 2) above, with V791A counted along it
a4(V824A)b7 (human), sequence (P26010 20-798, chain 2 of 2, further chain): as the sequence (P26010 20-798 G629S, chain 2 of 2, further chain) above, with S610G counted along it

| fluorescence staining intensity (geometric mean) (a4(Q878R)b7 (human) [1]) | fluorescence staining intensity (geometric mean) (human alpha4beta7 [2]) | fluorescence staining intensity (geometric mean) (a4(V824A)b7 (human) [3]) | fluorescence staining intensity (geometric mean) (a4b7(E97V) (human) [4]) | fluorescence staining intensity (geometric mean) (a4b7(G629S) (human) [5]) | fluorescence staining intensity (geometric mean) (a4b7(R213S) (human) [6]) | EC50 (human alpha4beta7 [7]) | Kd high (human alpha4beta7 [8]) | fluorescence staining intensity (geometric mean) (a4(Q878R)b7 (human) [9]) | fluorescence staining intensity (geometric mean) (a4(V824A)b7 (human) [10]) | fluorescence staining intensity (geometric mean) (a4b7(E97V) (human) [11]) | fluorescence staining intensity (geometric mean) (a4b7(G629S) (human) [12]) | fluorescence staining intensity (geometric mean) (a4b7(R213S) (human) [13]) | IC50 (human alpha4beta7 [14]) | fluorescence staining intensity (geometric mean) (human alpha4beta7 [15]) | HUT78 Adhesion IC50 (human alpha4beta7 [16]) | Kd low (human alpha4beta7 [17]) | Kd (human alpha4beta7 [18]) | Molecule |
| --- | --- | --- | --- | --- | --- | --- | --- | --- | --- | --- | --- | --- | --- | --- | --- | --- | --- | --- |
| 7 | 8 | 7 | 7 | 7 | 7 |  |  |  |  |  |  |  |  |  |  |  |  | human IgG (antibody) |
|  |  |  |  |  |  | 3.3 ng/mL | 11.1 pM | 73 | 112 | 134 | 80 | 37 | 4.6 ng/mL | 129 | 11.4 ng/mL | 1.94 pM | 4.56 pM | 2F12 (antibody, V domains shown, Fully human monoclonal from XenoMouse (human IgG2 or IgG4); kappa light chain; also called 2F12K; 2F12H) VH: QVQLVQSGAEVKKPGASVKVSCKVSGYTVTDLSMHWVRQAPGKGLEWMGGFDPQDGETIYAQKFQGRVTMTEDTSTDTAYMELRSLRSEDTAVYYCTTESSSAWFDPWGQGTLVTVSS VL: DIQMTQSPSSVFASVGDRVTITCRASQGISSWLAWYQQKPGKAPNLLIYGASSLQNGVPLRFSGSGSGTDFTLTISSLQPEDFATYYCQQANSFPWTFGQGTKVEIK |
|  |  |  |  |  |  | 4.7 ng/mL | 2.29 pM | 56 | 82 | 105 | 63 | 30 | 7.3 ng/mL | 92 | 7.4 ng/mL | 0.23 pM | 0.9 pM | 18A11 (antibody, V domains shown, Fully human monoclonal from XenoMouse (human IgG2 or IgG4); kappa light chain; also called 18A11K; 18A11H) VH: QVQLVQSGAEVKKPGASVKVSCKVSGYTLSDLSIHWVRQAPGKGLEWMGGFDPQDGETIYAQKFQGRVTMTEDTSTDTAYMELSSLKSEDTAVYYCATGSSSSWFDPWGQGTLVTVSS VL: DIQMTQSPSSVSASVGDRVTITCRASQGISSWLAWYQQKPGKAPKLLIYGASNLESGVPSRFSGSGSGTDFTLTISSLQPEDFANYYCQQANSFPWTFGQGTKVEIK |
|  |  |  |  |  |  | 22.9 ng/mL | 74.5 pM | 51 | 74 | 96 | 58 | 49 | 31.1 ng/mL | 93 | 6.8 ng/mL | 12.1 pM | 29.4 pM | 17C8 (antibody, V domains shown, Fully human monoclonal from XenoMouse (human IgG2 or IgG4); kappa light chain; also called 17C8K; 17C8H) VH: QVQLVESGGGLVKPGGSLRLSCAASGFTFSDYYMSWIRQAPGKGLEWLSYISNSGSAMYYADSVKGRFTISRDNARNSLYLQMNSLRAEDTAVYYCAREYSSGWFFFESWGQGTLVTVSS VL: EIVMTQSPATLSVSPGERATLSCRASQSVSSNLVWYQQKPGQAPRLLIYGASTRATGIPARFSGSGSGTDFTLTISSLQSEDFAVYYCQQYDDWPPLTFGGGTTVEIK |

Source: patent US20100254975A1 (Amgen, published 2010)
